PMC10713552 (Communications Biology, 2023)
Read-outs that look alike come from different tables or passages of the source.

What was measured:
Assay in all cases: BLI
[1] = biological target: T1, D614G-Hexapro (WT) spike ectodomain (SARS-CoV-2 Wuhan-Hu-1 D614G, D614G); conditions: both partners purified
[2] = biological target: T2, Omicron BA.1 spike protein ectodomain (BLI) (SARS-CoV-2 Omicron BA.1, strain); conditions: both partners purified
[3] = biological target: Omicron BA.2 spike protein ectodomain (BLI) (SARS-CoV-2, Omicron BA.2, strain); conditions: both partners purified
[4] = biological target: Omicron BA.2.12 spike protein ectodomain (BLI) (SARS-CoV-2 Omicron BA.2.12.1, strain); conditions: both partners purified
[5] = biological target: Omicron BA.5 spike protein ectodomain (BLI) (SARS-CoV-2 Omicron BA.5 (BA.4/5 spike), strain); conditions: both partners purified
[6] = biological target: T1, D614G-Hexapro (WT) spike ectodomain
[7] = biological target: T2, Omicron BA.1 spike protein ectodomain …
[8] = biological target: SARS-CoV-2 Omicron BA.2.12.1 spike protein ectodomain (SARS-CoV-2 Omicron BA.2.12.1, S373P); conditions: both partners purified
[9] = biological target: SARS-CoV-2 B.1.1.529.1/BA.1 S-HexaPro (SARS-CoV-2, Omicron BA.1, Ser371Leu | Ser373Pro | Ser375Phe | Q493R); conditions: both partners purified

B1: N3-1_Y (antibody, V domains shown)
VH: QVQLQQWGPGLVNPSETLSLTCSVSGGSFATENYYWSWIRQHPGEGLEWIGNIYFSGNTYYNPSLNNRFTISFDTSKNHLSLKLPSVTAADTAVYYCARGTIYFDYSGYRRVDPFHIWGQGTMVIVSS
VL: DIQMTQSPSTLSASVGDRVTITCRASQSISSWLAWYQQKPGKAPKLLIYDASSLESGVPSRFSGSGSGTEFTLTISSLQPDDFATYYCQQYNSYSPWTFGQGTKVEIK
notes: IgG1
For B1, the Kd [1] was 5.45 nM, the koff [1] was 0.000748 s⁻¹ and the kon [1] was 137000 M⁻¹ s⁻¹. For the same binder, the Kd [2] was 709 nM, the koff [2] was 0.00791 s⁻¹ and the kon [2] was 11200 M⁻¹ s⁻¹. For the same binder, the Kd [3] was 225 nM, the koff [3] was 0.00447 s⁻¹ and the kon [3] was 19900 M⁻¹ s⁻¹. It also gave a Kd [4] of 142 nM, a koff [4] of 0.00385 s⁻¹ and a kon [4] of 27100 M⁻¹ s⁻¹. For the same binder, the Kd [5] was 337 nM, the koff [5] was 0.0072 s⁻¹ and the kon [5] was 21300 M⁻¹ s⁻¹. The Kd [6] was 233 nM, the koff [6] was 0.000325 s⁻¹ and the kon [6] was 1400 M⁻¹ s⁻¹. It also gave a Kd [7] of 3550 nM, a koff [7] of 0.00213 s⁻¹ and a kon [7] of 600 M⁻¹ s⁻¹.

B2: N3-1_I (antibody, V domains shown)
VH: QVQLQQWGPGLVNPSETLSLTCSVSGGSFATENYYWSWIRQHPGEGLEWIGNIYFSGNTYYNPSLNNRFTISFDTSKNHLSLKLPSVTAADTAVYYCARGTIYFDISGYRRVDPFHIWGQGTMVIVSS
VL: not shown
notes: IgG1; copies: 2 + 2
For B2, the “fold improvement in Kd against wild-type N3-1” value [8] was 20 fold and the “fold improvement in Kd against wild-type N3-1” value [9] was 4 fold.

B3: N3-1_L (antibody, V domains shown)
VH: QVQLQQWGPGLVNPSETLSLTCSVSGGSFATENYYWSWIRQHPGEGLEWIGNIYFSGNTYYNPSLNNRFTISFDTSKNHLSLKLPSVTAADTAVYYCARGTIYFDLSGYRRVDPFHIWGQGTMVIVSS
VL: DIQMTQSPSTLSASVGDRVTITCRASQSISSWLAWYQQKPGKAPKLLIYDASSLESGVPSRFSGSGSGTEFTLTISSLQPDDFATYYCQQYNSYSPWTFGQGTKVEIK
notes: IgG1
With B3 the Kd [1] was 6 nM, the koff [1] was 0.00047 s⁻¹ and the kon [1] was 78300 M⁻¹ s⁻¹. The Kd [2] was 660 nM, the koff [2] was 0.00429 s⁻¹ and the kon [2] was 6490 M⁻¹ s⁻¹. For the same binder, the Kd [3] was 273 nM, the koff [3] was 0.00415 s⁻¹ and the kon [3] was 15200 M⁻¹ s⁻¹. For the same binder, the Kd [4] was 173 nM, the koff [4] was 0.00339 s⁻¹ and the kon [4] was 19500 M⁻¹ s⁻¹. For the same binder, the Kd [5] was 414 nM, the koff [5] was 0.00689 s⁻¹ and the kon [5] was 16600 M⁻¹ s⁻¹. The Kd [6] was 54.1 nM, the koff [6] was 0.00037 s⁻¹ and the kon [6] was 6840 M⁻¹ s⁻¹. The Kd [7] was 15200 nM, the koff [7] was 0.00357 s⁻¹ and the kon [7] was 234 M⁻¹ s⁻¹.

B4: N3-1_I (antibody, V domains shown)
VH: QVQLQQWGPGLVNPSETLSLTCSVSGGSFATENYYWSWIRQHPGEGLEWIGNIYFSGNTYYNPSLNNRFTISFDTSKNHLSLKLPSVTAADTAVYYCARGTIYFDISGYRRVDPFHIWGQGTMVIVSS
VL: not shown
notes: IgG1
With B4 the kon [1] was 76000 M⁻¹ s⁻¹, the Kd [2] was 331 nM and the koff [2] was 0.00193 s⁻¹. It also gave a kon [2] of 5820 M⁻¹ s⁻¹, a Kd [3] of 121 nM and a koff [3] of 0.00146 s⁻¹. It also gave a kon [3] of 12100 M⁻¹ s⁻¹, a Kd [4] of 76.9 nM and a koff [4] of 0.00112 s⁻¹. It also gave a kon [4] of 14600 M⁻¹ s⁻¹, a Kd [5] of 145 nM and a koff [5] of 0.00168 s⁻¹. It also gave a kon [5] of 11600 M⁻¹ s⁻¹, a Kd [6] of 1220 nM and a koff [6] of 0.000796 s⁻¹. It also gave a kon [6] of 651 M⁻¹ s⁻¹, a Kd [7] of 20.4 nM and a koff [7] of 0.00136 s⁻¹. The kon [7] was 66700 M⁻¹ s⁻¹.
